The data set is described as follows: total protein half-life in vivo (active degradation + dilution); higher = more stable protein.
The mark [1] stands for this setting: E. coli NCM3722 delta-clpP delta-lon delta-hslV, growth: N-lim chemostat, doubling time 6 h.
Where [2] appears, read: E. coli NCM3722 delta-clpP, growth: N-lim chemostat, doubling time 6 h.
[3] abbreviates: E. coli NCM3722 delta-hslV, growth: N-lim chemostat, doubling time 6 h.
[4] abbreviates: E. coli NCM3722 delta-lon, growth: N-lim chemostat, doubling time 6 h.
The mark [5] stands for this setting: E. coli NCM3722 delta-smpB, growth: N-lim chemostat, doubling time 6 h.
Setting [6] is: wild type E. coli NCM3722, growth: C-lim chemostat, doubling time 3 h.
The mark [7] stands for this setting: wild type E. coli NCM3722, growth: C-lim chemostat, doubling time 6 h.
Setting [8] is: wild type E. coli NCM3722, growth: C-lim chemostat, doubling time 12 h.
The mark [9] stands for this setting: wild type E. coli NCM3722, growth: N-lim chemostat, doubling time 6 h.
The mark [10] stands for this setting: wild type E. coli NCM3722, growth: N-lim chemostat, doubling time 12 h.
The mark [11] stands for this setting: wild type E. coli NCM3722, growth: P-lim chemostat, doubling time 6 h.
Where [12] appears, read: wild type E. coli NCM3722, growth: P-lim chemostat, doubling time 12 h.

± gives the standard deviation of the averaged measurements.

The values that follow come from the supplement of paper PMC11246515.

“MRLNPGQQQAVEFVTGPCLVLAGAGSGKTRVITNKIAHLIRGCGYQARHIAAVTFTNKAAREMKERVGQTLGRKEARGLMISTFHTLGLDIIKREYAALGMKANFSLFDDTDQLALLKELTEGLIEDDKVLLQQLISTISNWKNDLKTPSQAAASAIGERDRIFAHCYGLYDAHLKACNVLDFDDLILLPTLLLQRNEEVRKRWQNKIRYLLVDEYQDTNTSQYELVKLLVGSRARFTVVGDDDQSIYSWRGARPQNLVLLSQDFPALKVIKLEQNYRSSGRILKAANILIANNPHVFEKRLFSELGYGAELKVLSANNEEHEAERVTGELIAHHFVNKTQYKDYAILYRGNHQSRVFEKFLMQNRIPYKISGGTSFFSRPEIKDLLAYLRVLTNPDDDSAFLRIVNTPKREIGPATLKKLGEWAMTRNKSMFTASFDMGLSQTLSGRGYEALTRFTHWLAEIQRLAEREPIAAVRDLIHGMDYESWLYETSPSPKAAEMRMKNVNQLFSWMTEMLEGSELDEPMTLTQVVTRFTLRDMMERGESEEELDQVQLMTLHASKGLEFPYVYMVGMEEGFLPHQSSIDEDNIDEERRLAYVGITRAQKELTFTLCKERRQYGELVRPEPSRFLLELPQDDLIWEQERKVVSAEERMQKGQSHLANLKAMMAAKRGK”: the “total protein half-life in vivo” value runs as follows: under setting [1], 4.75 ± 0.66 h; under setting [2], 3.564 ± 0.03 h; under setting [3], 3.26 ± 0.39 h; under setting [4], 3.59 ± 0.24 h; under setting [5], 2.97 ± 0.12 h; under setting [6], 2.89 ± 0.43 h. The “total protein half-life in vivo” value is 4.89 ± 0.71 h under setting [7]; 6.36 ± 0.89 h under setting [8]; 3.27 ± 0.52 h under setting [9]; 4.74 ± 0.2 h under setting [10]; 5.75 ± 0.71 h under setting [11]; 8.39 ± 0.72 h under setting [12].

For “MRWLPFIAIFLYVYIEISIFIQVAHVLGVLLTLVLVIFTSVIGMSLVRNQGFKNFVLMQQKMAAGENPAAEMIKSVSLIIAGLLLLLPGFFTDFLGLLLLLPPVQKHLTVKLMPHLRFSRMPGGGFSAGTGGGNTFDGEYQRKDDERDRLDHKDDRQD”, the “total protein half-life in vivo” value is 5.99 ± 0.11 h under setting [1]; 6.83 ± 1.1 h under setting [2]; 6.44 ± 0.84 h under setting [3]; 6.06 ± 0.49 h under setting [4]; 5.53 ± 0.073 h under setting [5]; 2.47 ± 0.28 h under setting [6]. The “total protein half-life in vivo” value under setting [7] amounted to 7.17 ± 0.34 h; the “total protein half-life in vivo” value under setting [8] was 11.7 ± 1.8 h; the “total protein half-life in vivo” value under setting [9] stood at 6.12 ± 1.3 h; the “total protein half-life in vivo” value under setting [10] was 14.2 h; the “total protein half-life in vivo” value under setting [11] was found to be 5.89 ± 0.25 h; the “total protein half-life in vivo” value under setting [12] is 12.4 ± 0.96 h.

Take “MPVAHVALPVPLPRTFDYLLPEGMTVKAGCRVRVPFGKQQERIGIVVSVSDASELPLNELKAVVEVLDSEPVFTHSVWRLLLWAADYYHHPIGDVLFHALPILLRQGRPAANAPMWYWFATEQGQAVDLNSLKRSPKQQQALAALRQGKIWRDQVATLEFNDAALQALRKKGLCDLASETPEFSDWRTNYAVSGERLRLNTEQATAVGAIHSAADTFSAWLLAGVTGSGKTEVYLSVLENVLAQGKQALVMVPEIGLTPQTIARFRERFNAPVEVLHSGLNDSERLSAWLKAKNGEAAIVIGTRSALFTPFKNLGVIVIDEEHDSSYKQQEGWRYHARDLAVYRAHSEQIPIILGSATPALETLCNVQQKKYRLLRLTRRAGNARPAIQHVLDLKGQKVQAGLAPALITRMRQHLQADNQVILFLNRRGFAPALLCHDCGWIAECPRCDHYYTLHQAQHHLRCHHCDSQRPVPRQCPSCGSTHLVPVGLGTEQLEQTLAPLFPGVPISRIDRDTTSRKGALEQQLAEVHRGGARILIGTQMLAKGHHFPDVTLVALLDVDGALFSADFRSAERFAQLYTQVAGRAGRAGKQGEVVLQTHHPEHPLLQTLLYKGYDAFAEQALAERRMMQLPPWTSHVIVRAEDHNNQHAPLFLQQLRNLILSSPLADEKLWVLGPVPALAPKRGGRWRWQILLQHPSRVRLQHIINGTLALINTIPDSRKVKWVLDVDPIEG”: the “total protein half-life in vivo” value reads like this: under setting [1], 5.492 ± 0.011 h; under setting [2], 6.24 ± 0.23 h; under setting [3], 5.9 ± 0.067 h; under setting [4], 5.89 ± 0.2 h; under setting [5], 5.23 ± 0.45 h; under setting [6], 2.86 ± 0.03 h. Moreover, the “total protein half-life in vivo” value is, setting by setting: under setting [7], 5.85 ± 0.21 h; under setting [8], 9.53 ± 1.3 h; under setting [9], 5.35 ± 0.074 h; under setting [10], 12.2 ± 1 h; under setting [11], 6.13 ± 0.2 h.

With “MHVTLVEINVHEDKVDEFIEVFRQNHLGSVQEEGNLRFDVLQDPEVNSRFYIYEAYKDEDAVAFHKTTPHYKTCVAKLESLMTGPRKKRLFNGLMP”, the “total protein half-life in vivo” value is 4.55 ± 0.72 h under setting [1]; 2.71 h under setting [2]; above 8 h under setting [3]; 3 ± 0.2 h under setting [4]; 2.49 ± 0.49 h under setting [6]; 3.66 ± 0.24 h under setting [7]. Further, the “total protein half-life in vivo” value under setting [8] was 3.93 ± 0.26 h, the “total protein half-life in vivo” value under setting [9] came out at 2.69 h and the “total protein half-life in vivo” value under setting [10] came to 4.86 h.

For the sequence “MRNTLIPILVAICLFITGVAILNIQLWYSAKAEYLAGARYAANNINHILEEASQATQTAVNIAGKECNLEEQYQLGTEAALKPHLRTIIILKQGIVWCTSLPGNRVLLSRIPVFPDSNLLLAPAIDTVNRLPILLYQNQFADTRILVTISDQHIRGALNVPLKGVRYVLRVADDIIGPTGDVMTLNGHYPYTEKVHSTKYHFTIIFNPPPLFSFYRLIDKGFGILIFILLIACAAAFLLDRYFNKSATPEEILRRAINNGEIVPFYQPVVNGREGTLRGVEVLARWKQPHGGYISPAAFIPLAEKSGLIVPLTQSLMNQVARQMNAIASKLPEGFHIGINFSASHIISPTFVDECLNFRDSFTRRDLNLVLEVTEREPLNVDESLVQRLNILHENGFVIALDDFGTGYSGLSYLHDLHIDYIKIDHSFVGRVNADPESTRILDCVLDLARKLSISIVAEGVETKEQLDYLNQNYITFQQGYYFYKPVTYIDLVKIILSKPKVKVVVE”, the “total protein half-life in vivo” value stood at 3.79 h under setting [1]; 4.37 h under setting [4]; 6.19 ± 0.68 h under setting [5]; 4.59 h under setting [9]; 11.9 ± 0.31 h under setting [10].

Consider “MNKTITALAIMMASFAANASVLPETPVPFKSGTGAIDNDTVYIGLGSAGTAWYKLDTQAKDKKWTALAAFPGGPRDQATSAFIDGNLYVFGGIGKNSEGLTQVFNDVHKYNPKTNSWVKLMSHAPMGMAGHVTFVHNGKAYVTGGVNQNIFNGYFEDLNEAGKDSTAIDKINAHYFDKKAEDYFFNKFLLSFDPSTQQWSYAGESPWYGTAGAAVVNKGDKTWLINGEAKPGLRTDAVFELDFTGNNLKWNKLAPVSSPDGVAGGFAGISNDSLIFAGGAGFKGSRENYQNGKNYAHEGLKKSYSTDIHLWHNGKWDKSGELSQGRAYGVSLPWNNSLLIIGGETAGGKAVTDSVLITVKDNKVTVQN”, for which the “total protein half-life in vivo” value is, setting by setting: under setting [1], 5.85 ± 0.22 h; under setting [3], 5.99 ± 0.77 h; under setting [4], 6.24 ± 0.61 h; under setting [5], 6.27 ± 1.1 h; under setting [6], 3.12 ± 0.2 h; under setting [7], 6.33 ± 0.044 h. Besides, the “total protein half-life in vivo” value reads like this: under setting [8], 12.6 ± 1.2 h; under setting [9], 6.32 ± 0.1 h; under setting [10], 11.5 ± 1.4 h; under setting [11], 5.97 ± 0.41 h; under setting [12], 13.9 ± 1.4 h.

As for “MIVFSSLQIRRGVRVLLDNATATINPGQKVGLVGKNGCGKSTLLALLKNEISADGGSYTFPGSWQLAWVNQETPALPQAALEYVIDGDREYRQLEAQLHDANERNDGHAIATIHGKLDAIDAWSIRSRAASLLHGLGFSNEQLERPVSDFSGGWRMRLNLAQALICRSDLLLLDEPTNHLDLDAVIWLEKWLKSYQGTLILISHDRDFLDPIVDKIIHIEQQSMFEYTGNYSSFEVQRATRLAQQQAMYESQQERVAHLQSYIDRFRAKATKAKQAQSRIKMLERMELIAPAHVDNPFRFSFRAPESLPNPLLKMEKVSAGYGDRIILDSIKLNLVPGSRIGLLGRNGAGKSTLIKLLAGELAPVSGEIGLAKGIKLGYFAQHQLEYLRADESPIQHLARLAPQELEQKLRDYLGGFGFQGDKVTEETRRFSGGEKARLVLALIVWQRPNLLLLDEPTNHLDLDMRQALTEALIEFEGALVVVSHDRHLLRSTTDDLYLVHDRKVEPFDGDLEDYQQWLSDVQKQENQTDEAPKENANSAQARKDQKRREAELRAQTQPLRKEIARLEKEMEKLNAQLAQAEEKLGDSELYDQSRKAELTACLQQQASAKSGLEECEMAWLEAQEQLEQMLLEGQSN”, the “total protein half-life in vivo” value is, setting by setting: under setting [1], 6.02 ± 0.54 h; under setting [2], 4.89 ± 0.15 h; under setting [3], 2.697 ± 0.016 h; under setting [4], 3.16 ± 0.084 h; under setting [5], 2.95 ± 0.13 h; under setting [6], 2.39 ± 0.12 h. In addition, the “total protein half-life in vivo” value runs as follows: under setting [7], 4.3 ± 0.48 h; under setting [8], 6.5 ± 0.051 h; under setting [9], 2.95 ± 0.15 h; under setting [10], 3.94 ± 0.5 h; under setting [11], 3.58 ± 0.25 h; under setting [12], 6.36 ± 0.25 h.
